Laboratory results published in PMC3764190, “Type I-E CRISPR-Cas Systems Discriminate Target from Non-Target DNA through Base Pairing-Independent PAM Recognition”.
Changes are numbered by the printed parent chain.

T1: Cascade (Type I-E crRNA-guided surveillance complex, crRNA-loaded) (Escherichia coli K12 (expressed in …, UniProt Q46901;P76632;Q46899;Q46898;Q46897 1-502;1-160;2-363;1-224;2-199))
T1 sequence 1: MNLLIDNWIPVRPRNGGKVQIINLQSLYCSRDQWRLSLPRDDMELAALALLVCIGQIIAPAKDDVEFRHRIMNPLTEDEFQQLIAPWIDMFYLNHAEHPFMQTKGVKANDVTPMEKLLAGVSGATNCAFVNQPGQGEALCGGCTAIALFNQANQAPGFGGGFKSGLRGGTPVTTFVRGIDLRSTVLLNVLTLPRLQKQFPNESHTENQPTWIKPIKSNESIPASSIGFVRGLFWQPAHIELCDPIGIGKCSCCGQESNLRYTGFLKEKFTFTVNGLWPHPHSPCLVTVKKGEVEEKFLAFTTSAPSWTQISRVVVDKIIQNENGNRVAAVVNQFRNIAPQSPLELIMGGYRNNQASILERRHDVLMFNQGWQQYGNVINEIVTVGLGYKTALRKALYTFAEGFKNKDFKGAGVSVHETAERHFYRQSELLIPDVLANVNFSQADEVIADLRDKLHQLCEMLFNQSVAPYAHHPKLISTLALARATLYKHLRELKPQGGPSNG
T1 sequence 2: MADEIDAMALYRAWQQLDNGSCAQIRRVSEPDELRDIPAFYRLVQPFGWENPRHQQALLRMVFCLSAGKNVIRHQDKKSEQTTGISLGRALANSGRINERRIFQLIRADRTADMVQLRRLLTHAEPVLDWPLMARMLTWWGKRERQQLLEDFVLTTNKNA
T1 sequence 3: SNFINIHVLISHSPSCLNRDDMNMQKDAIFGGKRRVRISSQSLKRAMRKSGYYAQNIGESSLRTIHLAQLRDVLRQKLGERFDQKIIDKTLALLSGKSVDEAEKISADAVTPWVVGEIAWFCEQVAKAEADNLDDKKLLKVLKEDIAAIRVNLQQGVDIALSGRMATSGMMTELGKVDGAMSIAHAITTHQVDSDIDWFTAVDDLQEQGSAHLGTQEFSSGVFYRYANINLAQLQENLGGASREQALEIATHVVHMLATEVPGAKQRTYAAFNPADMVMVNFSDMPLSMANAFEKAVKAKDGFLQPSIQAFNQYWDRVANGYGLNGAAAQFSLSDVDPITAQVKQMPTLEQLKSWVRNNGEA
T1 sequence 4: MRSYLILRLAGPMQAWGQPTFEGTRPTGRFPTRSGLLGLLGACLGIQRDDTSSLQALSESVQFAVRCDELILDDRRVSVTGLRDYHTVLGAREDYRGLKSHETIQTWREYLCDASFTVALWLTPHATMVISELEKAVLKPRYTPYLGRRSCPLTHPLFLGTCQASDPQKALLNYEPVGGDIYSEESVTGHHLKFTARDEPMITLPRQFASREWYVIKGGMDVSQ
T1 sequence 5: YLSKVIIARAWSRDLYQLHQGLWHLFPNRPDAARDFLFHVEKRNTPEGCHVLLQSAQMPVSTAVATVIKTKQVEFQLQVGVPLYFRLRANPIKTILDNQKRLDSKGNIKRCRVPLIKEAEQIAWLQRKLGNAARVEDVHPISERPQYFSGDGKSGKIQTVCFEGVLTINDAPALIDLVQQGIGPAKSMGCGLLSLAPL

B1: g8C-2A crRNA + CTT PAM probe (mixed)
RNA: AUAAACAGCUGUCUUUCGCUGCUGAGGGUGACGAUCCCGCGAGUUCCCCGCGCCAGCGGGG
DNA 1: TTAAAGGCCGCTTTTGCGGGATCGTCACCCTCAGCAGCGAAAGACAGCTTCGGAACGAGGGTAGC
DNA 2: GCTACCCTCGTTCCGAAGCTGTCTTTCGCTGCTGAGGGTGACGATCCCGCAAAAGCGGCCTTTAA
B2: WT g8 crRNA + CTC PAM (GAG) M13 probe (mixed)
RNA: B1 RNA with A7C
DNA 1: B1 DNA 1 with T50C
DNA 2: B1 DNA 2 with A16G
B3: g8G-1T crRNA + CTT PAM probe (mixed)
RNA: B1 RNA with A7C, G8U
DNA 1: B1 DNA 1
DNA 2: B1 DNA 2
B4: WT g8 crRNA + CCT PAM (AGG) M13 probe (mixed)
RNA: B1 RNA with A7C
DNA 1: B1 DNA 1 with T49C
DNA 2: B1 DNA 2 with A17G
B5: g8G-1T crRNA + CCT PAM probe (mixed)
RNA: B1 RNA with A7C, G8U
DNA 1: B1 DNA 1 with T49C
DNA 2: B1 DNA 2 with A17G
B6: WT g8 crRNA + CTT PAM (AAG) M13 probe (mixed)
RNA: B1 RNA with A7C
DNA 1: B1 DNA 1
DNA 2: B1 DNA 2
B7: g8G-1T crRNA + CAT PAM probe (mixed)
RNA: B1 RNA with A7C, G8U
DNA 1: B1 DNA 1 with T49A
DNA 2: B1 DNA 2 with A17T
B8: WT g8 crRNA + CAT PAM (ATG) M13 probe (mixed)
RNA: B1 RNA with A7C
DNA 1: B1 DNA 1 with T49A
DNA 2: B1 DNA 2 with A17T
B9: g8G-1T crRNA + CTC PAM probe (mixed)
RNA: B1 RNA with A7C, G8U
DNA 1: B1 DNA 1 with T50C
DNA 2: B1 DNA 2 with A16G

Experiments:
[1] = molecular target: T1, Cascade (Type I-E crRNA-guided …); experiment: EMSA; g8C-2A crRNA; slightly reduced affinity; EMSA with 32P-labelled dsDNA; buffer, salt, pH and temperature not stated (as in ref 29); Kd from fraction bound = [Cascade]/(Kd+[Cascade]); conditions: protein: recombinant; copies: 1;2;6;1;1; label: 5'-32P on DNA; guide / target / displaced; DNA blunt duplex
[2] = molecular target: T1, Cascade (Type I-E crRNA-guided …); experiment: EMSA; WT crRNA; EMSA with 32P-labelled dsDNA; buffer, salt, pH and temperature not stated (as in ref 29); Kd from fraction bound = [Cascade]/(Kd+[Cascade]); conditions: protein: recombinant, copies: 1;2;6;1;1, label: 5'-32P on DNA, DNA blunt duplex
[3] = molecular target: T1, Cascade (Type I-E crRNA-guided …); experiment: EMSA; g8G-1T crRNA; EMSA with 32P-labelled dsDNA; buffer, salt, pH and temperature not stated (as in ref 29); Kd from fraction bound = [Cascade]/(Kd+[Cascade]); conditions: protein: recombinant; copies: 1;2;6;1;1; label: 5'-32P on DNA; guide / target / displaced; DNA blunt duplex

Binder	binding result ([2]; guide / target / displaced)	binding result [3]	further results
B1	–	–	Kd [1]: 60 ± 12 nM
B2	binds	–	–
B3	–	binds	–
B4	binds	–	–
B5	–	binds	–
B6	binds	–	–
B7	–	binds	–
B8	–	–	binding result ([2]; guide RNA / target strand / displaced strand): binds
B9	–	binds	–
